Laboratory results published in publication PMC13246001, “Membrane binding controls the ATPase cycle and localization of MinD in Bacillus subtilis” (eLife, 2026).

B1: His-MinD (B. subtilis MinD, N-terminally His-tagged) [B. subtilis] / itself (parent)
chain: MGEAIVITSGKGGVGKTTTSANLGTALAILGKRVCLVDTDIGLRNLDVVMGLENRIIYDLVDVVEGRCKMHQALVKDKRFDDLLYLMPAAQTSDKTAVAPEQIKNMVQELKQEFDYVIIDCPAGIEQGYKNAVSGADKAIVVTTPEISAVRDADRIIGLLEQEENIEPPRLVVNRIRNHLMKNGDTMDIDEIVQHLSIDLLGIVADDDEVIKASNHGEPIAMDPKNRASIAYRNIARRILGESVPLQVLEEQNKGMMAKIKSFFGVRS

Variants of: B1
Test: gel filtration (size-exclusion chromatography), self-association
Conditions: with itself; purification buffers supplied with excess Mg2+-ADP; read off a plot

elution volume [mL]	Variant
15.8	chain 1 D40A
16.1	chain 1 G12V
15.7	chain 1 K16A
